Results on 20 sequences are retold here after the DeepSol protein solubility set.

This data set is described as follows: soluble on expression in E. coli; label from the status in PepcDB or PDB records.
As to “MSLSAPLPLCVIGAGCVGMRHVEVARRSPQIRLTAVVEPVETRRRALAESGLVAVATLEEVPRETRAAIVATPTPDHLATGLAALSRGWAVLVEKPTAGTMDDARVLLGAADRAGLPLYVGHHRRCHPFSRAAREALGGIGDLVGLQGLWSLRKHDSYYAEDWRRQAGAGPLMTNLSHEIDLLRFLVGDMVEVSALTSSARRGLVVPDTAALAFRFADGALGSFLISDAGASPWSFEAACAENPAIAVSGQDYIRITGTAGALEFPSLTRWGRSAPGEIEWSKPLARAAGAGFARVDPLLEQINRFAAVLEGAQDDVLCTGTDGNAALEMTLAAALSGKLGRPVRAHEVPGDYSGEGHHHHHH”, the “soluble on expression in E. coli” value is recorded as “soluble”.
Take “MEKTSNTSKPLSRSEINKIIAVATGIKEKKIKEIFKYLNTLLLNELVSRSVCILPENLGKLRITIRNARYQKDMQTGEIRHIPPKPLVRYSPSKTIKETAAKVRWKYAD”: the “soluble on expression in E. coli” value was “soluble”.
“MSLTALSSVDFCLPEHITPEIFLRDYWQKKPLVIRNGLPEIVGQFEPQDIIELAQNEDVTARLVKTFSDDDWKVFFSPLSEKDFQKLPEKWSVLVQNLEQWSPELGQLWNKFGFIPQWQRDDIMVSYAPKGGSVGKHYDEYDVFLVQGYGHRRWQVGKWCDASTEFKPNQSIRIFDDMGELVIDEVMNPGDILYIPARMAHYGVAEDDCLTFSFGLRYPNLSNLIDGISKGFCHQDPDLNLSEFDLPLRLSQSEQRTGKLADENIQAMKQLLLDKLAHSEAFDTLFKQAVASAVSSRRYELLVSDEMCDPDEVRSILEEDGAFLSQDNNCKLLYTENPLRIYANGEWLDELNIIESEVLKRLSDGESLDWAFLSDLANKTEDPETSMDLLLDSICNWVDDGWALIEEGGSHHHHHH”: the “soluble on expression in E. coli” value is “soluble”.
For the sequence “MAKKTSSGRGKLPPGPTPLPVIGNILQIGIKDISKSLTNLSKVYGPVFTLYFGLKPIVVLHGYEAVKEALIDLGEEFSGRGIFPLAERANRGFGIVFSNGKKWKEIRRFSLMTLRNFGMGKRSIEDRVQEEARCLVEELRKTKASPCDPTFILGCAPCNVICSIIFHKRFDYKDQQFLNLMEKLNENIKILSSPWIQICNNFSPIIDYFPGTHNKLLKNVAFMKSYILEKVKEHQESMDMNNPQDFIDCFLMKMEKEKHNQPSEFTIESLENTAVDLFGAGTETTSTTLRYALLLLLKHPEVTAKVQEEIERVIGRNRSPCMQDRSHMPYTDAVVHEVQRYIDLLPTSLPHAVTCDIKFRNYLIPKGTTILISLTSVLHDNKEFPNPEMFDPHHFLDEGGNFKKSKYFMPFSAGKRICVGEALAGMELFLFLTSILQNFNLKSLVDPKNLDTTPVVNGFASVPPFYQLCFIPIHHHH”, the “soluble on expression in E. coli” value is recorded as “soluble”.
Consider “HMAQVFEECVSFINGLPRTINLPNELKLDLYKYYKQSTIGNCNIKEPSAHKYIDRKKYEAWKSVENLNREDAQKRYVDIVSEIFPYWQD”, for which the “soluble on expression in E. coli” value was “soluble”.
Regarding “MGSDKIHHHHHHMANNYMKRKDRIILTAVEIIDQLGVQGLTIREIASRQEISEAAIYRHFANKSEILLGTIDYFSSYDALLFRTIESQNMKAWEGITFLLASYTEYYENYPAITAVTFTQEAFQLEPEARERMENVIDNRLRFIKQMVIKGQKEGEFTRDICSEGIVDIIFGTVQFIILRWRAKNYDFALKEHVLSTLSILIEAFSTVKLENRFAWGGVFNQEVSSSTFDSVLTRPGLFLEKGKDQVNEKSEG”, the “soluble on expression in E. coli” value was “not soluble”.
Take “MKIDYVSDLHINHWIPWNVNQIKWEKRTREIVNRLISNGNGEVLVIAGDFTEWNQQTLWVLDEAAKQYEKVYFTYGNHDLYLLSKSQKRKYSDSLGRLNDLIQKAADMKNVTPLIKTTETYKGKVFAGDVMWYLPKGIEGWDFFKGVSNDSNYIWLNGYNKVDGVRAMWKESMDWYETLENTQVDVFVSHVPPVHNPYSPFEPNTCYMVDVPFINAKHWVCGHDHLQAEFDKDGTSFHMNCIGYPYDYDNYPSVNVIPGEEVDSYKTFELKTFEIMAGDPLEHHHHHH”: the “soluble on expression in E. coli” value is “not soluble”.
On to “MKPYDLSEAVAVVTGGSSGIGLATVELLLEAGAAVAFCARDGERLRAAESALRQRFPGARLFASVCDVLDALQVRAFAEACERTLGCASILVNNAGQGRVSTFAETTDEAWSEELQLKFFSVIHPVRAFLPQLESRADAAIVCVNSLLASQPEPHMVATSAARAGVKNLVRSMAFEFAPKGVRVNGILIGLVESGQWRRRFEAREERELDWAQWTAQLARNKQIPLGRLGKPIEAARAILFLASPLSAYTTGSHIDVSGGLSRHA”, for which the “soluble on expression in E. coli” value is on record as “soluble”.
For “MHHHHHHSSGVDLGTENLYFQSMMQKLVVTRLSPNFREAVTLSRDCPVPLPGDGDLLVRNRFVGVNASDINYSAGRYDPSVKPPFDIGFEGIGEVVALGLSASARYTVGQAVAYMAPGSFAEYTVVPASIATPVPSVKPEYLTLLVSGTTAYISLKELGGLSEGKKVLVTAAAGGTGQFAMQLSKKAKCHVIGTCSSDEKSAFLKSLGCDRPINYKTEPVGTVLKQEYPEGVDVVYESVGGAMFDLAVDALATKGRLIVIGFISGYQTPTGLSPVKAGTLPAKLLKKSASVQGFFLNHYLSKYQAAMSHLLEMCVSGDLVCEVDLGDLSPEGRFTGLESIFRAVNYMYMGKNTGKIVVELPH”, the “soluble on expression in E. coli” value is given as “soluble”.
For “SKKVIGKKRAHAEDDELDPMDPSSYSDAPRGGWVVGLKGVQPRAADTTASTGIFFKFQITDLTKPDEKIEVLTKRDQIVFQGPLFQQRPYPSPGAVLRRNAEVASSQKKKPNSQFTEITKRGDGSDGLGDAD”, the “soluble on expression in E. coli” value was “soluble”.
Take “QYAPQTQSGRTSIVHLFEWRWVDIALECERYLGPKGFGGVQVSPPNENIVVTNPSRPWWERYQPVSYKLCTRSGNENEFRDMVTRCNNVGVRIYVDAVINHMCGSGAAAGTGTTCGSYCNPGSREFPAVPYSAWDFNDGKCKTASGGIESYNDPYQVRDCQLVGLLDLALEKDYVRSMIADYLNKLIDIGVAGFRIDASKHMWPGDIKAVLDKLHNLNTNWFPAGSRPFIFQEVIDLGGEAIKSSEYFGNGRVTEFKYGAKLGTVVRKWSGEKMSYLKNWGEGWGFMPSDRALVFVDNHDNQRGHGAGGSSILTFWDARLYKIAVGFMLAHPYGFTRVMSSYRWARNFVNGEDVNDWIGPPNNNGVIKEVTINADTTCGNDWVCEHRWREIRNMVWFRNVVDGQPFANWWDNGSNQVAFGRGNRGFIVFNNDDWQLSSTLQTGLPGGTYCDVISGDKVGNSCTGIKVYVSSDGTAQFSISNSAEDPFIAIHAESKL”: the “soluble on expression in E. coli” value is “soluble”.
As to “MLDWEQIFATRSSRMKASEIRELLKLLEQPDIISFAGGIPDPALFPAEEFQQAYAEIFSGAQVNAALQYSVSEGYKPLREWLAGEMDKIGIDCTADNVFIVSGSQQGLDYLGKLFLSPKDTALVTWPTYLGALSAFNAYEPNYDQLNPGGNRTPEAYRETAAKLGGAVKFAYLSADFSNPTGETVDLAGREKVLALADELDIAVIEDAAYQSLRYDGEAVPPIMALDIARSGGIENTRTIYCGSFSKTLAPGLRVGYIVASAPVIRKLVLMKQAADLHSSTINQIAIERVAARGFDKQVAKIKAAYSARRDAMLSALEKYMPKTTSWTKPEGGMFIWVTLPEGMDGAALLAKSIATEKVAFVPGRAFFADGSGTNTLRISFSCANEAMIEEGMKRLGRLITTAQAETTEVLAAI”, the “soluble on expression in E. coli” value is on record as “not soluble”.
For the sequence “MRLAFWLYEGTALHGVSRVTNSMKGVHTVYHAPQGDDYITATYTMLERTPEFPKLSISVVRGQDLARGTSRLPGTVEQVDKHYKPELIVVAPSCSTALLQEDLGQMARASGVDQSKIMVYAVNPFRVAENEAAEGLFTELVRRFAAEQPKTEKPSVNLLGFTSLGFHLRSNLTSLRRMLKTLGIEVNVVAPWGAGIDDLKKLPAAWVNIAPFREIGCQAAGYLKEKFGMPSITEAPLGVNATLRWLRAIIAEVNKIGAEKGMAPMAMPELRDFSLDGQSAPSSVPWFARTADMESFSNKRAFVFGDATQVVGVTKFLKDELGMKIIGAGTYLPKQADWVREQLEGYLPGELMVTDKFQEVSAFIEEEMPELVCGTQMERHSCRKLDVPCMVISAPTHIENHLLGYYPFFGFDGADVMADRVYTSAKLGLEKHLIDFFGDAGLEYEAEEPEAFTEPTMSGNGTVASVSSAEAPSEAAVVTATATGELSWTAEAEKMLGKVPFFVRKKVRKNTDNYAREIGEPVVTADVFRKAKEHLGGLEHHHHHH”, the “soluble on expression in E. coli” value is “not soluble”.
In the case of “RSTIGAGQKVNVEFVSANPTGPMHVGHVRGAVVGDALARLLAYAGWNVTREYYINDGGAQVDVLARSAFERYREAHGLEPEIREGLYPGDYLIPVGEALKAKYGDSLLDKGEQHWLTEVREFATEMMMQMIREDLAALGVEMDVYSSEKALYGTGKIEAALDRLKEMDLIYEGVLEPPKGKTPEDWEPREQTLFRSTAHGDDVDRPVKKSDGSWTYFAPDIAYHYDKVTRGFDQLIDIFGADHGGYVKRMKAAVAALSAGRVPLDIKLIQLVKLWKNGEPFKMSKRAGTYVTLRDVVEQVGTDVTRFVMLTRKNDATLDFDFDKVLEQSKENPVFYVQYANARINSVLRKAREQGMDVSDA”, the “soluble on expression in E. coli” value is on record as “not soluble”.
Consider “EVVVIGYGTAKRKDITGSVATVNAEALTVVPVASATEALTGKMAGVQITTTEGSPDAEMKIRVRGGGSITGDNTPLFIVDGFPVESISDIPASDIEDMTVLKDASSTAIYGSRGANGVILVTTKSGK”, for which the “soluble on expression in E. coli” value was “not soluble”.
For “MSLNLVSLRVITDDVARLVGFYERATGLRATWATEDFAELRTPSGTLAIGSTRTVPLFAPGSARPADNRSVIVEFLVDDVDAVHRNLTGFVDEFVREPTTMPWGNRALLFRDPDGNLVNFFTPVTEGHHHHHH”, the “soluble on expression in E. coli” value is “not soluble”.
As to “MSWIERIKSNITPTRKASIPEGVWTKCDSCGQVLYRAELERNLEVCPKCDHHMRMTARNRLHSLLDEGSLVELGSELEPKDVLKFRDSKKYKDRLASAQKETGEKDALVVMKGTLYGMPVVAAAFEFAFMGGSMGSVVGARFVRAVEQALEDNCPLICFSASGGARMQEALMSLMQMAKTSAALAKMQERGLPYISVLTDPTMGGVSASFAMLGDLNIAEPKALIGFAGPRVIEQTVREKLPPGFQRSEFLIEKGAIDMIVRRPEMRLKLASILAKLMNLPAPNPEAPREGVVVPPVPDQEPEA”, the “soluble on expression in E. coli” value is listed as “soluble”.
Regarding “MDDYKRILITKILKNEVTEALGCTEVGLIGYAVSLCNISDPFSIEKIELTLNNGSFKNAYAVGVPNTKKYGILPAVVGGLLGDHKNKLLVFNGIKYSQKLEDFIKERLKIRVINSPLYCGVKIKDNSGNTFESLIKDNHLNVVIPKINNKLISEINGSEKEEYKNLELLDFLEYIDEIPEEIIQLVEKTIYTNNNLIKGDFLNFGNDCLSNMVNKTTSACNTRMIGENMPAMSVAKSGNMGIMATLPIIAYDYSNEQNQEKLIKSILLSVLVTIYATYKSSYLSSMCGCVSKGGMGAVIGLCYYKNGKNIKKLDSAARTFTANLPGIICDGGKVGCALKLASGCFAAYSSLFVDISYENGIVGKNFKECVENISEISKIMGDLDSDIVKIMSKKEI”, the “soluble on expression in E. coli” value is “not soluble”.
For “MSLRPTPAPSFSGVTVDGKPFSSASLKGKAYIVNFFATWCPPCRSEIPDMVQVQKTWASRGFTFVGIAVNEQLPNVKNYMKTQGIIYPVMMATPELIRAFNGYIDGGITGIPTSFVIDASGNVSGVIVGPRSKADFDRIVKMALGAKAATKKGIITITTDPNSSSVDKLAAALEHHHHHH”, the “soluble on expression in E. coli” value is given as “soluble”.
In the case of “MGSDKIHHHHHHMKQNLTLILMNEAVREGWREWMEKVRKVLPQTDAERPVTWIAAERLAQENGRMVRLVELLREHRPVLSYRVKEEAGLLILVAYHRHGSSSDFLLETAEAYFRERDCGGFLFLCRMQASINAYDEYPHLNVLCNRLAGLLFRFRRERASEYRKGIPPMFSGADLQEVEKYLPHLRGCSFREEIALALPKVKNVEELARECAMSVNTLGRRFKEELNTTPHRWLTEQRKAHVTSLLADTDMPLQEIADVCGFATPSYLWDFCKKHLKATPAEIREIARCARTV” it was “not soluble”.
